Laboratory results: patent US20190248900A1 (Y BIOLOGICS, published 2019)

Legend:
Assay in all cases: ELISA
[1] = biological target: TNFSF9 (Homo sapiens (Human), UniProt P41273 50-254)
[2] = biological target: T1, OSTM1 (Homo sapiens (Human), UniProt Q86WC4 32-284)
T1 sequence: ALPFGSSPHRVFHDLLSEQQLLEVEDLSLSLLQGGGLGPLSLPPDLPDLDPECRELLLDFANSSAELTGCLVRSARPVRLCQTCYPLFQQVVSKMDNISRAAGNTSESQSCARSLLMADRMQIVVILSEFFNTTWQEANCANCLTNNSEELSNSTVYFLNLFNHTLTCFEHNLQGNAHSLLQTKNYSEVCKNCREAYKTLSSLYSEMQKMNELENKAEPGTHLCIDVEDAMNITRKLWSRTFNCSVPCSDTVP

[3] = biological target: T2, EV12A (Homo sapiens (Human), UniProt P22794 31-133)
T2 sequence: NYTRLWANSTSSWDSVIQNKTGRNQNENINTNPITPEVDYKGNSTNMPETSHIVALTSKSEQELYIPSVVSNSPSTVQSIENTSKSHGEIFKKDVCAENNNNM

[4] = biological target: T3, LRRN4 (Homo sapiens (Human), UniProt Q8WUT4 19-679)
T3 sequence: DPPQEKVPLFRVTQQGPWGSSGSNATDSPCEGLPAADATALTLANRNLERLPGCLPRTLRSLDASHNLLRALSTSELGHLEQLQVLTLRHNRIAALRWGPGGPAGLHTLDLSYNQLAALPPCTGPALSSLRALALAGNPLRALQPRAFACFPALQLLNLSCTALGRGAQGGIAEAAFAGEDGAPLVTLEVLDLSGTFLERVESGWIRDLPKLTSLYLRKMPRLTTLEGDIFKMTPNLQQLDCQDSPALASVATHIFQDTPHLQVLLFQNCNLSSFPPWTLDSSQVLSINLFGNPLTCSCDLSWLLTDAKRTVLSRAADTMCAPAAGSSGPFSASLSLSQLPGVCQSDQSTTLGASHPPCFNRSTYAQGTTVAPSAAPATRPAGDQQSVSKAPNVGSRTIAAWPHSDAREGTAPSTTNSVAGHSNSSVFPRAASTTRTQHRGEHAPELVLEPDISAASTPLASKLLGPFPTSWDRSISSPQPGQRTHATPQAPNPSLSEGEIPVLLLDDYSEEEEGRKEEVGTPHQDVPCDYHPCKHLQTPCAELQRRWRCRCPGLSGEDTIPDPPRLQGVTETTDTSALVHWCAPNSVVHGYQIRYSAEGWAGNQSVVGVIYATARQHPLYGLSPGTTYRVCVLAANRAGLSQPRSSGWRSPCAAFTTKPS

[5] = biological target: T4, SLITRK5 (Homo sapiens (Human), UniProt O94991 41-664)
T4 sequence: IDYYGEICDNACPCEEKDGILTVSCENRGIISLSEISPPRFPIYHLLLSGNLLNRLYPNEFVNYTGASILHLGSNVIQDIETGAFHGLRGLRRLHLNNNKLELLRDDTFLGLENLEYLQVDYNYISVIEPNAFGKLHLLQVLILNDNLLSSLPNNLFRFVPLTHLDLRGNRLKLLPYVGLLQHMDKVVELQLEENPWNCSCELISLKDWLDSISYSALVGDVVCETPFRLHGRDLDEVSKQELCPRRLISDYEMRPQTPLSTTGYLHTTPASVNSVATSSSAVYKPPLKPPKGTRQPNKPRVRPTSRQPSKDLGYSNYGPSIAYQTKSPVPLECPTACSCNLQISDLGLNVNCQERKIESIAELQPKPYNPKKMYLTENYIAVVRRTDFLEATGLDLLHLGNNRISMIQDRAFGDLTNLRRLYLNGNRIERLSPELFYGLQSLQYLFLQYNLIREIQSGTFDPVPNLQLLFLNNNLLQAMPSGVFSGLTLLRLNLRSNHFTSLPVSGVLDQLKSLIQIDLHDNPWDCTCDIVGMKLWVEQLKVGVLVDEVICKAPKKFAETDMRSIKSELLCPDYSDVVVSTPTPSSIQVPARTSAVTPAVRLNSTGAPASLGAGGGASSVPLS

[6] = biological target: T5, SLITRK2 (Homo sapiens (Human), UniProt Q9H156 22-621)
T5 sequence: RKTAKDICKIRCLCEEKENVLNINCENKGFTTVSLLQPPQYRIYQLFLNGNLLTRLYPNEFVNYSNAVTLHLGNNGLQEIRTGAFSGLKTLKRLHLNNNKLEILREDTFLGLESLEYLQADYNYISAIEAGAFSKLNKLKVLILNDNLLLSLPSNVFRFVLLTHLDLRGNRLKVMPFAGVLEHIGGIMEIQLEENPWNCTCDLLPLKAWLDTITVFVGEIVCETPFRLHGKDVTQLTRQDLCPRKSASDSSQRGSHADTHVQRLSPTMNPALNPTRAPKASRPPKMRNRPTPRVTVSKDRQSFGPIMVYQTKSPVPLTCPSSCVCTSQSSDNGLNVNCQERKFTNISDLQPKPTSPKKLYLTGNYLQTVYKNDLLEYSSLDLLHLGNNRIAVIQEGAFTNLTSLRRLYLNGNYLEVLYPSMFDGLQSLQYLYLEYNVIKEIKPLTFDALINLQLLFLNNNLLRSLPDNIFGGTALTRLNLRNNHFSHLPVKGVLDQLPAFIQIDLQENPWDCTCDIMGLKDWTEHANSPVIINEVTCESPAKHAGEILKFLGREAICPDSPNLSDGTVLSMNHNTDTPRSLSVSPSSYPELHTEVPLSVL

[7] = biological target: T6, BAMBI (Homo sapiens (Human), UniProt Q13145 21-152)
T6 sequence: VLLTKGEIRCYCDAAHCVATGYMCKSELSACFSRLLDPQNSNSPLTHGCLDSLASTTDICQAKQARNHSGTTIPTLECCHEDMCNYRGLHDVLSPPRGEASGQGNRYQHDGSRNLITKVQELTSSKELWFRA

[8] = biological target: T7, TMEFF2 (Homo sapiens (Human), UniProt Q9UIK5 41-320)
T7 sequence: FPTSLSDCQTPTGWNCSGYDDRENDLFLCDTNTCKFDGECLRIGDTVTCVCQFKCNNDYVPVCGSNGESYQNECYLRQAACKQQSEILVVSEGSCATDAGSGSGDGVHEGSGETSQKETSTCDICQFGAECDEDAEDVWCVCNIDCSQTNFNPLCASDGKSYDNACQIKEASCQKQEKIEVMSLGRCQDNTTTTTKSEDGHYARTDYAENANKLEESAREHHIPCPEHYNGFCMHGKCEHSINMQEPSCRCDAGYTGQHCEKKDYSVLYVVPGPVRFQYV

Measured: binding result

Sequence of TNFSF9 (P41273 50-254 limits assumed): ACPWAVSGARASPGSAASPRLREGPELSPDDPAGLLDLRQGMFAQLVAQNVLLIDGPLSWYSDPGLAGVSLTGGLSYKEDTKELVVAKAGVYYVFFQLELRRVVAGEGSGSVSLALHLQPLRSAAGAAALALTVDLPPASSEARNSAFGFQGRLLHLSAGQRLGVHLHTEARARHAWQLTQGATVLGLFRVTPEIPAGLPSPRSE

B1: PD1-45D6 (antibody, V domains shown)
VH: QVQLVESGGGVVQPGRSLRLSCAASGFTFSSYAMHWVRQVPGKGLEWVAVISYDGNDKYYADSVKGRFTISRDNSKNTLYLQMNSLRAEDTAVYYCVPTTFEYWGQGSQVTVSS
VL: DIVMTQTPLSLPVTPGEAASISCRSSQSLLDSDDGKTYLDWYLQKPGQSPQLLIYTLSYRASGVPDRFSGSGSGTEFNLRISRVEAEDVGIYYCMQRVEFPFTFGQGTKLDIK
notes: scFv-phage in the screening ELISA; whole IgG in the other assays
no binding (tested: 1 ug/ml): all assays above

B2: PD1-41C9 (antibody, V domains shown)
VH: QMQLVESGGGVVQPGRSLRLSCAASGFTFSSYAMHWVRQAPGKGLEWVAVISYDGSNKYYADSVKGRFTISRDNSKNTLYLQMNRLRSEDTAVYYCTTTTFDSWGQGTLITVSS
VL: DIVMTQTPLSLPVTPGEAASISCRSSQSLLDSEDGNTYLDWYLQKPGQSPQLLIYTLSHRASGVPDRFSGSGSGTDFTLKISRVAAEDVGLYYCLQRMGFPYTFGQGTKLDIK
notes: as for B1
no binding (tested: 1 ug/ml): all assays above

B3: PD1-49A2 (antibody, V domains shown)
VH: QVQLVESGGGVVQPGRSLRLSCAASGFTFSSYAMHWVRQAPGKGLEWVAVISYDGSNKYYADSVKGRFTISRDNPKNTLYLQMNSLRAEDTAVYYCTTTTFDSWGRGTLVTVSS
VL: DIVMTQSPLSLPVTPGEPASISCRSSQSLFDSDDGNTYLDWYLQKPGQSPQLLIYTLSHRASGVPDRFSGSGSGTDFTLKISRVEAEDVGIYYCLQRMGFPYTFGQGTKVEIK
notes: scFv-phage in the screening ELISA; whole IgG in the other assays; also called Parent 49A2
no binding (tested: 1 ug/ml): all assays above
